Positions count from the first letter of the chain named.

What all share (assay): SPR; Biacore T200, Sensor Chip C1; GST-fused Ub or Ub2 captured by immobilised anti-GST antibodies (200-400 RU); FAAP20-UBZ injected 60 s at 10 uL/min; 25°C, HBS-P (10 mM HEPES-Na pH 7.4, 150 mM NaCl, 0.05% surfactant P20); equilibrium fit, 1:1 model; triplicate
Conditions in all cases: both partners purified
For orientation: SPR reads the build-up and loss of mass on a sensor chip optically.

The target in assay [1] is T1, GST-fused K63-linked diubiquitin (K63-Ub2) (UniProt P0CG48 1-76; P0CG48 1-76, K63R | additional aspartate residue at its C-terminal extremity (D77), K63-linked to the other Ub chain | K63-linked to the other Ub chain).
T1 construct: ubiquitin carrying the K63R mutation, GST-fused; ubiquitin with an additional aspartate residue at its C-terminal extremity (D77 Ub); Surmised: Gly76 of GST-K63R Ub (distal) is joined by an isopeptide bond to Lys63 of D77 Ub (proximal); also called K63-linked Ub2; GST-fused K63-Ub2

The target of assay [2] is T2, GST-fused M1-linked diubiquitin (M1-Ub2) (UniProt P0CG48 1-76; P0CG48 1-76).
T2 construct: ubiquitin, first (distal) moiety of the M1-linked (linear, head-to-tail) diubiquitin; ubiquitin, second (proximal) moiety, its Met1 joined to Gly76 of the first; Written as one chain of two ubiquitins, as M1-linked; also called M1-linked Ub2; GST-fused M1-Ub2; source: purified (Glutathione Sepharose FF, ResourceQ)

Assay [3] addresses T3, GST-fused K48-linked diubiquitin (K48-Ub2) (UniProt P0CG48 1-76; P0CG48 1-76, K48R | additional aspartate residue at its C-terminal extremity (D77), K48-linked to the other Ub chain | K48-linked to the other Ub chain).
T3 construct: ubiquitin carrying the K48R mutation, GST-fused; ubiquitin with an additional aspartate residue at its C-terminal extremity (D77 Ub); Surmised: Gly76 of GST-Ub K48R (distal) is joined by an isopeptide bond to Lys48 of D77 Ub (proximal); also called K48-linked Ub2; GST-fused K48-Ub2

Assay [4] deals with T1, GST-fused K63-linked diubiquitin …. This is another data set of the same source.
In assay [5] the target is T4, GST-fused ubiquitin (Ub) (UniProt P0CG48 1-76).
T4 construct: ubiquitin (Ub), the mature product of a ubiquitin precursor; Captured on the chip by anti-GST antibodies; source: purified (Glutathione Sepharose FF, ResourceQ)

The target in assay [6] is T4, GST-fused ubiquitin (Ub). This is another data set of the same source.

B1: FAAP20-UBZ (UBZ domain of FAAP20, residues 142-180), wild type (domain or fragment, human, UniProt Q6NZ36 142-180, looked up)
chain: AALRSCPMCQKEFAPRLTQLDVDSHLAQCLAESTEDVTW
notes: also called FAAP20-UBZ(wt); WT; source: E. coli Rosetta (DE3), purified (Glutathione Sepharose FF, ResourceQ, HRV3C cleavage, Superdex75); not shown: GST, N-terminal, cleaved
As to B1, the “stoichiometry N” value in assay [1] was 2. Moreover, the Kd in assay [2] amounted to 22.3 µM; in assay [3], 39.1 µM; in assay [4] it was 35.9 µM; in assay [5] it was 19.9 µM.

B2: FAAP20-UBZ A172L (domain or fragment, human, UniProt Q6NZ36 142-180, looked up)
chain: B1 chain with A31L
notes: human FAAP20, UBZ domain, residues 142-180; source: purified similarly to wild-type FAAP20-UBZ (E. coli Rosetta (DE3)); not shown: GST, N-terminal, cleaved
B2 had a Kd in assay [6] of 113 µM.

B3: FAAP20-UBZ L161A (domain or fragment, human, UniProt Q6NZ36 142-180, looked up)
chain: B1 chain with L20A
notes: as for B2
For B3, the Kd in assay [6] is 125 µM. This Kd and that of the molecule before are within 1.5-fold of each other.

B4: FAAP20-UBZ D177A (domain or fragment, human, UniProt Q6NZ36 142-180, looked up)
chain: B1 chain with D36A
notes: as for B2
On to B4, for which binding in assay [6] was characterised by a dissociation constant (Kd) of 218 µM.

In general, stoichiometry N refers to the number of molecules, sites or subunits per partner or assembly. By Kd is commonly meant the free concentration of one partner at which half of the binding sites on the other are occupied at equilibrium, for simple one-to-one binding.

The values above are taken from article PMC4370504, “Structural Basis for Ubiquitin Recognition by Ubiquitin-Binding Zinc Finger of FAAP20” (PLoS ONE, 2015).
